In test [1] the target is T1, SARS-CoV-2 Spike protein extracellular domain (S-ECD), as used in ELISA and BLI (SARS-CoV-2, Wuhan-Hu-1 (P0DTC2)). In words: cell-based or functional assay.
Test [2] has as its target T1, SARS-CoV-2 Spike protein extracellular …. In words: BLI. The note with it: both partners purified.

One may read the Kd as the constant that tells how readily two partners part at equilibrium. A high value points to lower affinity.

B1: 0304-3H3 (human monoclonal antibody) (antibody, V domains shown)
VH: EVQLVESGPGLVKPSETLSLTCTASGGSISTYYWSWIRQPPGKGLEWIGYIYYSGSTNYNPSLKSRVTISVDTSKNQFSLKLSSVTAADTAVYYCARDRIAPVGKFFGWYFDLWGRGTLVTVSS
VL: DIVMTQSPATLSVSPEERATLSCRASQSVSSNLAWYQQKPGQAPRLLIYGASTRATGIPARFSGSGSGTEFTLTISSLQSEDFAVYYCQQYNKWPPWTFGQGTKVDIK
notes: also called mAb 0304-3H3
Regarding B1, in test [1], the “neutralization of authentic SARS-CoV-2 in Vero-E6 cells, EC50” value was 0.04 µg/mL. Moreover, the Kd in test [2] is < 2.14 nM.

B2: 9A1 (human monoclonal antibody) (antibody, V domains shown)
VH: EVQLLESGGGVVQPGRSLRLSCVVSGFTFNNYGMHWVRQAPGKGLEWVAVISYEGSVKYYGDHVDGRFTISRDPFKNTLYLHMNNLRPDDTAVYYCAKVSAIFWLGQGLSPIDVWGQGTTVTVSS
VL: DIVMTQSPATLSASPGERVTLSCRASQNIRNNLAWYQQKPGQAPRLLIHGASTRAAGAPARFSGSGSDTQFTLTVSSLQSEDFAVYYCHQYSKWPVTFGGGTKVDIK
notes: also called mAb 9A1
Regarding B2, in test [2], the Kd was < 2.14 nM.

B3: 1M-1D2 (human monoclonal antibody) (antibody, V domains shown)
VH: QVQLVESGGGLVQPGGSLRLSCAASGFTFSSYAMHWVRQAPGKGLEYVSAISGNGGSTYYAKSVKGRFTISRDNSKNTLYLQMGSLRAEDMAVYYCARGAEYYDFWSGYYSAYFDYWGQGTLVTVSS
VL: QAVVTQPPSASGTPGQRVTISCSGSSSNIGSNYVYWYQQLPGTAPKLLIYNNNQRPSGVPDRFSGSKSGTSASLAISGLRSEDEADYYCAAWDDSLIYVLFGGGTKLTVL
Regarding B3, the “neutralization of authentic SARS-CoV-2 in Vero-E6 cells, EC50” value in test [1] was found to be 28 µg/mL. In addition, in test [2], the Kd was < 2.14 nM.

B4: 2M-10B11 (human monoclonal antibody) (antibody, V domains shown)
VH: EVQLVESGGGLVQPGGSLRLSCAASGFTVSSNYMSWVRQAPGKGLEWVSVIYSGGSTYYADSVKGRFTISRDNSKNTLYLQMNSLRAEDTAVYYCARATWLRGVMDVWGQGTTVTVSS
VL: QSALTQPHSVSESPGKTVTISCTGSSGSIASNYVQWYQQRPGSAPTTVIYEDNQRPSGVPDRFSGSIDSSSNSASLTISGLKTEDEADYYCQSYDSSNHWVFGGGTKLTVL
notes: ELISA group 2B; also called mAb 2M-10B11
For B4, in test [2], the Kd was < 2.14 nM.

Values taken from article PMC7319273 (Science (New York, N.y.), 2020).
